How the values were obtained:
human CXCL13 [1] = biological target: T1, human CXCL13 (human, UniProt O43927 23-109); assay: ELISA, coated antigen, chimeric IgG1
T1 construct: also called huCXCL13; rhCXCL13
T1 sequence (looked up): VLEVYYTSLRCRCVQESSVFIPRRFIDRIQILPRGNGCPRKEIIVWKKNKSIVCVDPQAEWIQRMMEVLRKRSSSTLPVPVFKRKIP
Procedure: (§1) Elisa based binding assay. […] Briefly, 100 μl of human CXCL13 or cynomolgus CXCL13 was coated at 0.5 μg/ml overnight and then blocked by 200 μl of 5% BSA in PBS. Serial diluted antibodies were incubated with the coated antigen for 30 min at RT. The resulting plates were washed with PBS/T and incubated with goat anti-human IgG Fc-HRP for 30 min RT. The plates were developed with TMB substrate after washing with 1×PBST for 5 times and reaction stopped with 1N HCl and analyzed by spectrophotometer at OD 450-630 nm.

cynomolgus CXCL13 = biological target: T2, cynomolgus CXCL13 (cynomolgus, UniProt H6WS58 23-109); assay: ELISA, coated antigen, chimeric IgG1
T2 construct: also called cynoCXCL13; Cyno CXCL13
T2 sequence: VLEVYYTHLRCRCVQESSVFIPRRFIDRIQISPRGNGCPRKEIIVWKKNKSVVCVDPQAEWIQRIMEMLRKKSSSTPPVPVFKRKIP
Procedure: as §1

human CXCL13 [2] = biological target: T1, human CXCL13; assay: cell-based blocking ELISA, CXCL13 to CHO-K1-CXCR5
Procedure: This example tested the blocking of the anti-CXCL13 chimeric antibodies to CHO-K1-CXCR5 cells. Briefly, 5×10⁴ CHO-K1-CXCR5 cells were plated in 96-well plate with 100 μl of culture medium and incubated at 37° C. overnight. Cells were fixed with 100 μl of 2% PFA at RT for 1 hr after washing with PBS for 1 time. Samples were blocked with 1% BSA in PBST for 1 hr at RT. Antibodies were serial diluted from 50 μg/ml by 3-fold with 1% BSA/PBST and pre-incubated with equal volume of 0.3 μg/ml human CXCL13 for 30 min at RT. 100 μl of antibody-antigen complex was transferred into each cell wells for 30 min at RT. Samples were washed with 1×PBST for 3 times and 100 μl of 3 μg/ml of human Mab5261 antibody was added into each well to capture human CXCL13 and anti-human Fc-HRP was used to indirectly detect human CXCL13 when it bound to CHO-K1-CXCR5 cells.
Then read at 450 nm. […] Among all clones, 415A3D1, 64C10G1, 1H3A11, 414D10F5, 411A11E9, 21H12D9, 71F4A3, 329F2E1 show completely blocking activity and 408E3F3, 19H7E10, 339A6E7 appeared to be partial blockers.

human CXCL13 [3] = biological target: T1, human CXCL13; assay: ELISA binding, Fab
human CXCL13 [4] = biological target: T1, human CXCL13; assay: SPR Biacore, off-rate ranking of Fabs
human CXCL13 [5] = biological target: T1, human CXCL13; assay: SPR Biacore 8K, Fab over immobilised CXCL13
Procedure: HuCXCL13 binding affinity by Surface Plasmon Resonance. 411A11E9, 415A3D1, 64C10G1, 21H12D9, 329F2E1, 71F4A3 were selected to produce Fab and tested binding affinity. The binding of the antibodies to huCXCL13 was examined by Biacore 8K. 10 mM HEPES, 150 mM NaCl, 3 mM EDTA, 0.05% Tween-20, pH 7.4 served as running buffer and 10 mM glycine-HCl, pH2.0 served as regeneration buffer. CXCL13 protein was immobilized on Sensor Chip CM5 using amine coupling method (immobilization level ˜30RU). The serial concentrations of Fab (0-16 nM) were injected over immobilized CXCL13 at the flow rate of 30 μl/min. The dissociation phases were 600s.

human CXCL13 [6] = biological target: T1, human CXCL13; assay: SPR Biacore 8K, Fab over immobilised CXCL13; remark: listed apart in the source
In short: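 Surface plasmon resonance: CXCL13 amine-coupled to CM5 chip at ~250 RU, humanized Fabs injected at 0–20 nM, 30 μl/min, in HEPES-buffered saline with EDTA and Tween-20, pH 7.4. Dissociation 600 s; regeneration with glycine-HCl pH 2.0.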

human CXCL13 [7] = biological target: T1, human CXCL13; assay: cell-based blocking assay, CXCL13 to CXCR5 cells
In short: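 The IC50 of the humanized Fabs was taken from a titration series. Each dilution was pre-incubated for 30 min at room temperature with an equal volume of human CXCL13 at 0.3 μg/ml, and 100 μl was then added for 30 min to fixed, blocked CHO-K1 cells expressing CXCR5 (5×10⁴/well). After three PBST washes, bound CXCL13 was captured with 3 μg/ml human anti-CXCL13 antibody, detected with anti-human Fc-HRP and read at 450 nm.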

human CXCL13 [8] = biological target: T1, human CXCL13; assay: SPR Biacore T200
Text: In the first approach, mutations were chosen to target the hotspots in LCDR1, HCDR2 and HCDR3. Usually, CDR3 contributes most to antigen binding and heavy chain is more important than light chain for antigen binding. Moreover, LCDR1 is important for antigen binding. For the first trial, random mutations were targeted to hotspots in LCDR1, HCDR2 and HCDR3. Eliminate hotspots that code for conserved and buried amino acids in CDRs. […] After finishing construction of phage library, antigen CXCL13 screening was followed. Antibodies of these sequences were generated, and affinity testing was performed by Biacore T200.

B1: 1H3A11 chimeric human IgG1 antibody (antibody, V domains shown)
VH: EVQLVESGGGLVKPGGSLKLSCAASGFTFSSYAMSWVRQTPEKRLEWVATISDGGSDTYYPDNVKGRFTISRDNAKNNLYLQMSHLKSEDTAMYYCARDYYGSSYEDYAMDYWGQGTSVTVSS
VL: DIQMTQSPSSLSASLGGKVTITCKASQDINKYITWYQHKPGKGPRLLIHYTSTLQPGIPSRFSGSGSGRDYSFSISNLEPEDIATYYCLQYDNLYTFGGGTKLEIK
notes: Chimeric human IgG1
- EC50 (human CXCL13 [1]): 0.0553 mg/L
- EC50 (cynomolgus CXCL13): 0.144 mg/L
- IC50 (human CXCL13 [2]): 1.19 mg/L

B2: 71F4A3 chimeric Fab (Fab, V domains shown)
VH: EVKLLQSGGGLVQPGGSLKLSCAASGIDFSRYWMSWVRRAPGKGLEWIGEINPDSSTINYAPSLKDKFIISRDNAKNTLYLQMSKVRSEDTALYYCARQDDYEYYAMDYWGQGTSVTVSS
VL: DIVMTQSHKSMSTSVGDRVSITCKASQDVNTGVAWYRQKPGQSPKLLIYSASYRYTGVPDRFTGSGSGTDFTFTISSVQAEDLAVYYCQQYYSTPLTFGAGTKLELK
notes: Fab
- EC50 (human CXCL13 [3]): 1.49 nM
- Kd (human CXCL13 [4]): 0.556 nM
- koff (human CXCL13 [4]): 0.00184 s⁻¹
- kon (human CXCL13 [4]): 3.3e+06 M⁻¹ s⁻¹
- Kd (human CXCL13 [5]): 0.154 nM
- koff (human CXCL13 [5]): 0.000285 s⁻¹
- kon (human CXCL13 [5]): 1.85e+06 M⁻¹ s⁻¹
- Kd (human CXCL13 [6]): 0.782 nM
- koff (human CXCL13 [6]): 0.00141 s⁻¹
- kon (human CXCL13 [6]): 1.8e+06 M⁻¹ s⁻¹
- IC50 (human CXCL13 [7]): 5.07 nM

B3: 414D10F5 chimeric human IgG1 antibody (antibody, V domains shown)
VH: EVQLAESGGGLVQPGRSLKLSCSASGFTFSDYYMAWFRQAPPKGLEWVASISYDGGDSFYRDSVKGRFTISRDNAKSSLYLQMDSLRSEDTATYYCTTEEDYSGSFPDYWGQGVMVTVSS
VL: DIQMTQSPSFLSASVGDRVTINCKASQNINKYLNWYQQKLGEAPKRLIYDTNNLQAGIPSRFSGSGSGTDYTLTINSLQPEDFATYFCLQHNSLYTFGGGTKLELK
notes: Chimeric human IgG1
- EC50 (human CXCL13 [1]): 0.0628 mg/L
- EC50 (cynomolgus CXCL13): 1.19 mg/L
- IC50 (human CXCL13 [2]): 1.26 mg/L

B4: 415A3D1 chimeric human IgG1 antibody (antibody, V domains shown)
VH: EVKLLESGGGLVQAGGSMRLSCGAFGFTVTDFYINWIRQPAGKAPEWLGFMRNKANGYTTEYNPSVKGRFTISRNNTQNMPYLQMNTLRTEDTAIYYCARSRYNADDYYVGVMDVWGQGASVTVSS
VL: DIQMTQFPASLSASLGETVSIECLASEDIYNNLAWYQQKPGKSPQLLIYYTNSLQDGVPSRFSGTGSGTQYSLKINSLESEDAATYFCLQDSEYPWTFGGGTKLKLK
notes: Chimeric human IgG1; label 415A3D1 read as clone 415A3D1F4
- EC50 (human CXCL13 [1]): 0.0729 mg/L
- EC50 (cynomolgus CXCL13): 0.0469 mg/L
- IC50 (human CXCL13 [2]): 0.985 mg/L

B5: 71F4-4B12 (antibody, V domains shown)
VH: EVQLVESGGGLVQPGGSLRLSCAASGIDFSRYWMSWVRQAPGKGLEWVAEINPERNYINYAPSLKDRFTISRDNAKNSLYLQMNSLRAEDTAVYYCARQDDYDKYAMDYWGQGTTVTVSS
VL: DIQMTQSPSSLSASVGDRVTITCKASQDVNTGVTWYQQKPGKAPKLLIYSASYRYTGVPSRFSGSGSGTDFTFTISSLQPEDIATYYCQQYYSTPLTFGGGTKLEIK
notes: not certain; also called 71F4A3-B12
- kon (human CXCL13 [8]): 5.36e+06 M⁻¹ s⁻¹

B6: 71F4A3-BC1 (antibody, V domains shown)
VH: EVQLVESGGGLVQPGGSLRLSCAASGIDFSRYWMSWVRQAPGKGLEWVAEINPEASSINYAPSLKDRFTISRDNAKNSLYLQMNSLRAEDTAVYYCARQDDYSHYAMDYWGQGTTVTVSS
VL: DIQMTQSPSSLSASVGDRVTITCKASQDVNTGVSWSQQKPGKAPKLLIYSASYRYTGVPSRFSGSGSGTDFTFTISSLQPEDIATYYCQQYYSTPLTFGGGTKLEIK
notes: also called 71F4-BC1
- kon (human CXCL13 [8]): 2.09e+06 M⁻¹ s⁻¹

B7: 71F4A3-BE3 (antibody, V domains shown)
VH: EVQLVESGGGLVQPGGSLRLSCAASGIDFSRYWMSWVRQAPGKGLEWVAEINPESSTINYAPSLKDRFTISRDNAKNSLYLQMNSLRAEDTAVYYCARQDDYLTYAMDYWGQGTTVTVSS
VL: DIQMTQSPSSLSASVGDRVTITCKASQDVNTAVDWFQQKPGKAPKLLIYSASYRYTGVPSRFSGSGSGTDFTFTISSLQPEDIATYYCQQYYSTPLTFGGGTKLEIK
notes: also called 71F4-BE3
- kon (human CXCL13 [8]): 1.03e+06 M⁻¹ s⁻¹

B8: 71F4A3-5A4 (antibody, V domains shown)
VH: EVQLVESGGGLVQPGGSLRLSCAASGIDFSRYWMSWVRQAPGKGLEWVAEINPESTGINYAPSLKDRFTISRDNAKNSLYLQMNSLRAEDTAVYYCARQDDYWTYAMDYWGQGTTVTVSS
VL: DIQMTQSPSSLSASVGDRVTITCKASQDVNTAVSWTQQKPGKAPKLLIYSASYRYTGVPSRFSGSGSGTDFTFTISSLQPEDIATYYCQQYYSTPLTFGGGTKLEIK
notes: also called 71F4-5A4
- kon (human CXCL13 [8]): 6.58e+06 M⁻¹ s⁻¹

B9: 71F4A3-3F12 (antibody, V domains shown)
VH: EVQLVESGGGLVQPGGSLRLSCAASGIDFSRYWMSWVRQAPGKGLEWVAEINPESNFINYAPSLKDRFTISRDNAKNSLYLQMNSLRAEDTAVYYCARQDDYSVYAMDYWGQGTTVTVSS
VL: DIQMTQSPSSLSASVGDRVTITCKASQDVNTGVTWFQQKPGKAPKLLIYSASYRYTGVPSRFSGSGSGTDFTFTISSLQPEDIATYYCQQYYSTPLTFGGGTKLEIK
notes: also called 71F4-3F12
- kon (human CXCL13 [8]): 6.3e+06 M⁻¹ s⁻¹

B10: 71F4A3-BC4 (antibody, V domains shown)
VH: EVQLVESGGGLVQPGGSLRLSCAASGIDFSRYWMSWVRQAPGKGLEWVAEINPEAGKWNYAPSLKDRFTISRDNAKNSLYLQMNSLRAEDTAVYYCARQDDYTTYAMDYWGQGTTVTVSS
VL: DIQMTQSPSSLSASVGDRVTITCKASQDVNTGVSWYQQKPGKAPKLLIYSASYRYTGVPSRFSGSGSGTDFTFTISSLQPEDIATYYCQQYYSTPLTFGGGTKLEIK
notes: also called 71F4-BC4
- kon (human CXCL13 [8]): 362000 M⁻¹ s⁻¹

B11: 71F4A3-BD12 (antibody, V domains shown)
VH: EVQLVESGGGLVQPGGSLRLSCAASGIDFSRYWMSWVRQAPGKGLEWVAEINPETTIINYAPSLKDRFTISRDNAKNSLYLQMNSLRAEDTAVYYCARQDDYRHYAMDYWGQGTTVTVSS
VL: DIQMTQSPSSLSASVGDRVTITCKASQDVNTGVAWFQQKPGKAPKLLIYSASYRYTGVPSRFSGSGSGTDFTFTISSLQPEDIATYYCQQYYSTPLTFGGGTKLEIK
notes: also called 71F4-BD12
- kon (human CXCL13 [8]): 1.9e+06 M⁻¹ s⁻¹

B12: 71F4A3-4H1 (antibody, V domains shown)
VH: EVQLVESGGGLVQPGGSLRLSCAASGIDFSRYWMSWVRQAPGKGLEWVAEINPESTLINYAPSLKDRFTISRDNAKNSLYLQMNSLRAEDTAVYYCARQDDYRNYAMDYWGQGTTVTVSS
VL: DIQMTQSPSSLSASVGDRVTITCKASQDVNTGVSWFQQKPGKAPKLLIYSASYRYTGVPSRFSGSGSGTDFTFTISSLQPEDIATYYCQQYYSTPLTFGGGTKLEIK
notes: also called 71F4-4H1
- kon (human CXCL13 [8]): 1.64e+07 M⁻¹ s⁻¹

— patent publication US20210284724A1 (I MAB BIOPHARMA US, published 2021)
